# Measurements taken from the supplement of paper PMC12764529.
# ± gives the half width of the 95% confidence interval.
# Assay: folding stability dG unfold (combined trypsin and chymotrypsin); higher = more stable
# Summary of the method: (§1)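 Designed mini-proteins with no cysteine and under 80 residues were kept only if AlphaFold2 dimer inter-PAE was above 15. In a PA-tagged cDNA display construct, they were digested with trypsin and chymotrypsin and then sequenced. K50 was inferred by Bayesian fitting of counts, and unfolding free energy was derived per protease or combined against a sequence-predicted unfolded-state K50 and a shared folded-state K50.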
row,Sequence,folding stability dG unfold [kcal/mol]
1,SAGGSAGGSKFEITEVSVELVEVDGKLYLKVSMTIKNEDGSTYKISLVYDLENNELYLSIEKVSAGGSAGGS [r12_1035_TrROS_Hall],5.87 ± 0.37
2,SAGPGAELVAEFEVELGDRGARIRIYRAPDFLIIRVDYPDGTVPVFRIDPRTGRIVEVRTFRVRPDLPLSAG [r14_676_TrMRF],2.28 ± 0.11
3,SAGGSAGGSGGVIDIPVYGEDGEKFIASAPKEVIEKAIKEGKPIEVYVVDDGKIIKKFTISTGSAGGSAGGS [r12_991_TrMRF],0.0354 ± 0.12
4,SAGGSLVEKVKAIFAEKGIPVNPITTTPTSFTAKTPTGPFTVELPGNSTVTVSPDGTATVTVPPGLSSAGGS [r8_297_JUSTAS],1.99 ± 0.21
5,SAGGSAGGSAEPPRYLVIELEVERSPEEIAEELRRRLGIERVEVEYDPETERLRVRVVVRLPSAGGSAGGSA [r18_275_TrROS_Hall],2.88 ± 0.11
6,SAGGSAGGSAGGGMESKTTVTEEFSPEEVKTVTTVTTYPDGSVTETPENVKVPPGALAGSAGGSAGGSAGGS [r10_280_JUSTAS],1.49 ± 0.11
7,SAGGSAGGSADPPRSVLKEERSPDGTTTYKLLEYPGERVLVVTRTPPDGTEEVVLIPEEELSAGGSAGGSAG [r3_167_JUSTAS],0.231 ± 0.086
8,SAGGSSMQTTVFILPGPEVPVEEVKAKIAKELGLDFETVTFIPAPSREEAEALAAALGVDGIIVEVDSAGGS [r8_245_JUSTAS],2.58 ± 0.052
9,SAGGLEILEVDPDTYTITIRFGDRPLEFTVPPDYPPTITITEDPDGSVTLTIEVPDRTETFTIPRELVESAG [r5_500_TrMRF],1.61 ± 0.083
10,SAGGSAGGPPGEPPDVKVIPIEIEHERYNPDDGEMEVETIPFPIVIAPDGTIYHGDRPIPPDDISAGGSAGG [r6_515_TrROS],1.8 ± 0.41
11,SAGGPISKKKIVTAPVSYDPATGKYTITLTYPDSTYTIPSDLSDLEEALKRAKEKLEKETGIPVETVLGSAG [r5_251_JUSTAS],0.918 ± 0.074
12,SAGGSAEIWIWMPYDMIESLAKKAGDPNVKVEPVEPPDDNPGEPYWFKITLKDNGKPKREIEFWFPSAGGSA [r15_428_TrROS],2.23 ± 0.15
13,SAGGSAGGSAGGMTTVTLTLTTELEVKDPEGKLHRETVTVTVTVPVPPSTLTDTTDLVSSAGGSAGGSAGGS [r10_168_JUSTAS],1.91 ± 0.17
14,SAGGSAPEPIRFYFWWPGKIIEITIPPDEIEKVEIKPDNGDIDITVKLPGEEVEISITPGAIHVQTSAGGSA [r15_598_TrROS],2.29 ± 0.17
15,SAGGSAGGSAEEPEFEIVSVEYDPETNVLTVVVRDKKTGRLYVFRFYPDGTVEVREVSLEDLSAGGSAGGSA [r18_521_TrROS_Hall],4.74 ± 0.076
16,SAMPVVTLKAKVTIHSDPNGIEEKEIEITVTFPDPNVGLEEAKKKAEEAIKEYAEKNGLKIELEEITIESAG [r14_190_JUSTAS],1.88 ± 0.09

# Assay: folding stability dG unfold from chymotrypsin proteolysis; higher = more stable
# Summary of the method: as §1
row,Sequence,folding stability dG unfold [kcal/mol]
1,SAPDKIEIPITFPNGYTFWIKIDPDRIRVTWMDNGLRREKEITPDGMIKLDFRMPNGRPIMSPTIPLEDSAG [r14_213_TrROS],1.93 ± 0.12
2,SAGGSAGGKPKIIEEKELEFTRKDGKKVKIKLVKNEDGKVFAFNKDTGKVITLPLDELKALLKSSAGGSAGG [r6_579_TrROS_Hall],2.37 ± 0.024
3,SAGGATLTEPETTVEVRFEKLPDGTVIRTTTTITPEGVTTTTEPVPVPPSPGASSEEELEALRAAAAAASAG [r5_272_JUSTAS],1.51 ± 0.037
4,SAGGSMPYKTLEESESEIYDPSNGNVKYKVKTETILLPDGTILVKETIYDPETGTTETKTYTIPKGSAGGSA [r2_13_JUSTAS],1.82 ± 0.13
5,SAGGMVDVTITFTKPDGTPETRPIPASSLPLEELVARIRALREAGVEAEVELPPSLPEEVREALARLLSAGG [r13_251_JUSTAS],2.09 ± 0.071
6,SAGGSAGGSAPIKITEHTYNPGDGMVWATAEAEDPNGWKIKLTIWFFPDGNIQIEITEIVPSAGGSAGGSAG [r3_7_TrROS],4.39 ± 0.14
7,SAGGSAGGSAGEPEIEIEVEERDGELVLRARVRDRETGEEYEVVVRVRPDGPIEITEIRPSAGGSAGGSAGG [r17_113_TrROS_Hall],2.55 ± 0.13
8,SMSRPVEVEFELPLEGEGPVRLRATLVVDPESGVVEIPVRARFPEREEDVDLPPELLERLARRVLEELGGSA [r9_1136_TrMRF],1.25 ± 0.034
9,SAGGSAMVKTADGKEVKVEKVIPLEEMSLEELKALAEKNNKPILIVDKKTKKVIVLTKEELEKLLKSAGGSA [r15_904_TrROS_Hall],1.73 ± 0.071
10,SAGGSAGGAEIVEIEVRKEKRPDGKEVLTVKVKIKLENGEEIEVTVREGMTLEEALKKAKELLKSAGGSAGG [r6_986_TrROS_Hall],2.75 ± 0.12
11,SAGFTLKLEFPDSTVDVKVTKVDPKNNIIYAEALLPGGEKLTLTYNPETGEIEIEKKKLERTPDGGLEESAG [r14_466_JUSTAS],1.51 ± 0.14
12,SAGGMTPVPVKLLSEESSSVSTLPNGETVTTTPSLAYSPLGFYVLTTTTTYPATPVTTTTSTVVPLSVSAGG [r19_320_JUSTAS],-0.151 ± 0.22
13,SAGGSSMVDIKPGLVTEIRVETLPNGERVYVVEIPLENGERAVVKISEKFKSEEEKLKAIYEAVSKSAGGSA [r2_347_JUSTAS],2.47 ± 0.039
14,SAGGDLEAKPFEITFVIKAKPFPTPDGRLVETPEKVFKLKVLVVRGPNETRLFVFDEDGNLLFTSNLSAGGS [r16_92_TrMRF],3.888 ± 0.022
15,SMPGSITVEIEVEEEEDPERGGRRIKKLLIKKVTYKDEKGNSSDEVANEIKNALKEKLEKEGKPAEIELTSA [r9_261_JUSTAS],1.11 ± 0.23
16,SAGGSAGGSKFEITEVSVELVEVDGKLYLKVSMTIKNEDGSTYKISLVYDLENNELYLSIEKVSAGGSAGGS [r12_1035_TrROS_Hall],5.7 ± 0.16

row,Sequence,folding stability dG unfold [kcal/mol]
1,SAGPGAELVAEFEVELGDRGARIRIYRAPDFLIIRVDYPDGTVPVFRIDPRTGRIVEVRTFRVRPDLPLSAG [r14_676_TrMRF],1.91 ± 0.098
2,SAGGSAGGSGGVIDIPVYGEDGEKFIASAPKEVIEKAIKEGKPIEVYVVDDGKIIKKFTISTGSAGGSAGGS [r12_991_TrMRF],-0.0658 ± 0.17
3,SAGGSLVEKVKAIFAEKGIPVNPITTTPTSFTAKTPTGPFTVELPGNSTVTVSPDGTATVTVPPGLSSAGGS [r8_297_JUSTAS],2.2 ± 0.066
4,SAGGSAGGSAEPPRYLVIELEVERSPEEIAEELRRRLGIERVEVEYDPETERLRVRVVVRLPSAGGSAGGSA [r18_275_TrROS_Hall],3.37 ± 0.047
5,SAGGSAGGSAGGGMESKTTVTEEFSPEEVKTVTTVTTYPDGSVTETPENVKVPPGALAGSAGGSAGGSAGGS [r10_280_JUSTAS],1.92 ± 0.13
6,SAGGSAGGSADPPRSVLKEERSPDGTTTYKLLEYPGERVLVVTRTPPDGTEEVVLIPEEELSAGGSAGGSAG [r3_167_JUSTAS],0.0217 ± 0.25
7,SAGGSSMQTTVFILPGPEVPVEEVKAKIAKELGLDFETVTFIPAPSREEAEALAAALGVDGIIVEVDSAGGS [r8_245_JUSTAS],2.662 ± 0.013
8,SAGGLEILEVDPDTYTITIRFGDRPLEFTVPPDYPPTITITEDPDGSVTLTIEVPDRTETFTIPRELVESAG [r5_500_TrMRF],1.84 ± 0.09
9,SAGGSAGGPPGEPPDVKVIPIEIEHERYNPDDGEMEVETIPFPIVIAPDGTIYHGDRPIPPDDISAGGSAGG [r6_515_TrROS],1.41 ± 0.09
10,SAGGPISKKKIVTAPVSYDPATGKYTITLTYPDSTYTIPSDLSDLEEALKRAKEKLEKETGIPVETVLGSAG [r5_251_JUSTAS],1 ± 0.11
11,SAGGSAEIWIWMPYDMIESLAKKAGDPNVKVEPVEPPDDNPGEPYWFKITLKDNGKPKREIEFWFPSAGGSA [r15_428_TrROS],2.67 ± 0.045
12,SAGGSAGGSAGGMTTVTLTLTTELEVKDPEGKLHRETVTVTVTVPVPPSTLTDTTDLVSSAGGSAGGSAGGS [r10_168_JUSTAS],2.12 ± 0.054
13,SAGGSAPEPIRFYFWWPGKIIEITIPPDEIEKVEIKPDNGDIDITVKLPGEEVEISITPGAIHVQTSAGGSA [r15_598_TrROS],2.57 ± 0.032
14,SAGGSAGGSAEEPEFEIVSVEYDPETNVLTVVVRDKKTGRLYVFRFYPDGTVEVREVSLEDLSAGGSAGGSA [r18_521_TrROS_Hall],5.03 ± 0.057
15,SAMPVVTLKAKVTIHSDPNGIEEKEIEITVTFPDPNVGLEEAKKKAEEAIKEYAEKNGLKIELEEITIESAG [r14_190_JUSTAS],2.06 ± 0.047
